Source: the supplement of paper PMC6757056
± gives the standard deviation of the averaged measurements.

B1: library; a variant is named by its letters at N, in order (parent)
chain: GCUGUCACCGGUGUAUUACCCUAGUGGUCGACCGGUCUGAUGAGUCUNNNNNNAGACGAAACAGC

Key:
hypoxanthine [1] = variants of: B1; experiment: FACS-Seq fitted mean relative fluorescence mCherry/BFP without ligand (log10 relative fluorescence); ligand: hypoxanthine (xanthine aptamer); higher = higher reporter protein expression; settings: HEK293T, ligand present: no
Procedure, shortened: (§1)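 Cells were sorted into 6 bins on the mCherry/BFP ratio after 48 h with or without ligand. These were enriched HEK293T cells transduced by lentivirus with a ribozyme-switch mCherry reporter plus an EF1α-BFP marker. Fluorescence was obtained by fitting a normal distribution to sequencing-derived bin counts. Counts came from MiSeq sequencing of PCR-amplified, barcoded genomic DNA, binned by log10(mCherry/BFP), with means scaled to five spiked-in control ribozymes.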

hypoxanthine [2] = variants of: B1; experiment: normalized RNA/DNA level with ligand (relative to sTRSVctl = 100) (log10 (% of sTRSVctl)); ligand: hypoxanthine (xanthine aptamer); higher = less ribozyme self-cleavage, higher mRNA level; settings: ligand concentration (+) RNA-Seq: 5 mM, HEK293T, reporter: mCherry (pCS4076), ligand present: yes
Procedure, shortened: (§2)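 HEK293T cells were transfected with library plasmids carrying ribozyme switches linked to an mCherry reporter, or an eGFP reporter in some ligand experiments, at 4 µg per well of a 6-well plate, with any ligand added 1 h beforehand. After 72 h, total RNA was extracted with EDTA, reverse-transcribed, amplified, barcoded and sequenced. RNA level was defined as RNA reads over DNA reads, normalized to a spiked-in non-cleaving sequence or to the top-ranked sequences. That value was multiplied by 100 and converted to log10, the top set was 25 sequences, and only sequences with ≥100 DNA reads were retained.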

hypoxanthine [3] = variants of: B1; experiment: normalized RNA/DNA level without ligand (relative to sTRSVctl = 100) (log10 (% of sTRSVctl)); ligand: hypoxanthine (xanthine aptamer); higher = less ribozyme self-cleavage, higher mRNA level; settings: HEK293T, reporter: mCherry (pCS4076), ligand present: no
Procedure, shortened: as §2

hypoxanthine [4] = variants of: B1; experiment: FACS-Seq fitted mean relative fluorescence mCherry/BFP with ligand (log10 relative fluorescence); ligand: hypoxanthine (xanthine aptamer); ligand concentration (+) FACS-Seq: 5 mM; higher = higher reporter protein expression; settings: HEK293T, ligand present: yes
Procedure, shortened: as §1

| Variant | FACS-Seq fitted mean (log10) (hypoxanthine [1]) | normalized RNA/DNA level with ligand (log10) (hypoxanthine [2]) | normalized RNA/DNA level without ligand (log10) (hypoxanthine [3]) | FACS-Seq fitted mean (log10) (hypoxanthine [4]) |
| --- | --- | --- | --- | --- |
| UUGAUA | 0.161 ± 0.022 | 1.93 ± 0.047 | 1.806 ± 0.01 | 0.277 ± 0.015 |
| AUGCGG | -0.0506 ± 0.036 | 1.752 ± 0.0084 | 1.31 ± 0.12 | 0.504 ± 0.014 |
| AUGCGA | 0.0429 ± 0.015 | 1.89 ± 0.076 | 1.556 ± 0.0057 | 0.395 ± 0.06 |
| CUGUUA | 0.263 ± 0.085 | 1.95 ± 0.057 | 1.66 ± 0.027 | 0.493 ± 0.053 |
| GUGCUG | 0.44 ± 0.068 | 1.914 ± 0.019 | 1.58 ± 0.025 | 0.542 ± 0.054 |
| AUUAUU | 0.5583 ± 0.0011 | 1.91 ± 0.0029 | 1.881 ± 0.011 | 0.668 ± 0.014 |
| AUUAUA | 0.24 ± 0.022 | 1.928 ± 0.019 | 1.81 ± 0.028 | 0.402 ± 0.063 |
| AUUACG | 0.368 ± 0.015 | 1.84 ± 0.066 | 1.397 ± 0.00039 | 0.626 ± 0.068 |
| AUUACA | 0.157 ± 0.076 | 1.91 ± 0.033 | 1.776 ± 0.0047 | 0.407 ± 0.0063 |
| UUGCCG | 0.171 ± 0.068 | 1.98 ± 0.039 | 1.83 ± 0.038 | 0.358 ± 0.006 |
| AUGACG | 0.0397 ± 0.012 | 1.807 ± 0.0069 | 1.354 ± 0.011 | 0.3727 ± 0.0035 |
| AUGACA | 0.303 ± 0.11 | 1.909 ± 0.013 | 1.8 ± 0.021 | 0.344 ± 0.049 |
| AUGGAC | 0.677 ± 0.01 | 1.8884 ± 0.00037 | 1.68 ± 0.028 | 0.843 ± 0.058 |
| AUGGAG | 0.0698 ± 0.0056 | 1.71 ± 0.037 | 1.208 ± 0.011 | 0.604 ± 0.023 |
| AUGGAA | 0.751 ± 0.027 | 1.88 ± 0.044 | 1.65 ± 0.043 | 0.749 ± 0.042 |
| CUUCCC | -0.199 ± 0.041 | 1.9 ± 0.021 | 1.9406 ± 0.0018 | 0.0439 ± 0.038 |
| GUGUAA | 0.291 ± 0.061 | 1.85 ± 0.024 | 1.67 ± 0.049 | 0.495 ± 0.043 |
| GUGUAG | 0.19 ± 0.04 | 1.76 ± 0.022 | 1.17 ± 0.065 | 0.6252 ± 0.0039 |
| GUGUAU | 0.314 ± 0.018 | 1.91 ± 0.056 | 1.737 ± 0.017 | 0.33 ± 0.021 |
| CUGCAG | 0.429 ± 0.068 | 1.96 ± 0.02 | 1.73 ± 0.066 | 0.677 ± 0.016 |
| UUGCGG | -0.08 ± 0.07 | 1.99 ± 0.062 | 1.91 ± 0.044 | -0.606 ± 0.083 |
| GUGUUG | 0.222 ± 0.012 | 1.83 ± 0.048 | 1.34 ± 0.11 | 0.559 ± 0.033 |
| GUGAGA | -0.285 ± 0.036 | 1.86 ± 0.025 | 1.5664 ± 0.0011 | -0.146 ± 0.2 |
| GUGAGG | 0.174 ± 0.029 | 1.7 ± 0.039 | 1.2 ± 0.026 | 0.598 ± 0.051 |

| Variant | FACS-Seq fitted mean (log10) (hypoxanthine [1]) | normalized RNA/DNA level with ligand (log10) (hypoxanthine [2]) | normalized RNA/DNA level without ligand (log10) (hypoxanthine [3]) | FACS-Seq fitted mean (log10) (hypoxanthine [4]) |
| --- | --- | --- | --- | --- |
| GUGAGC | 0.0785 ± 0.015 | 1.731 ± 0.017 | 1.15 ± 0.016 | 0.6585 ± 0.0046 |
| CUUCGA | -0.0248 ± 0.11 | 2.01 ± 0.04 | 1.876 ± 0.012 | 0.346 ± 0.059 |
| UUGUGG | 0.447 ± 0.013 | 2.01 ± 0.025 | 1.89 ± 0.0069 | 0.511 ± 0.067 |
| AUUGCG | -0.0459 ± 0.021 | 1.857 ± 0.015 | 1.41 ± 0.065 | 0.458 ± 0.028 |
| UUGCUU | 0.227 ± 0.004 | 1.98 ± 0.042 | 1.94 ± 0.044 | 0.0746 ± 0.042 |
| AUUCAU | 0.124 ± 0.035 | 1.93 ± 0.049 | 1.8 ± 0.064 | 0.262 ± 0.046 |
| CUUGAA | 0.0914 ± 0.0068 | 1.95 ± 0.041 | 1.706 ± 0.015 | 0.182 ± 0.0048 |
| CUUGAU | -0.553 ± 0.022 | 1.94 ± 0.031 | 1.74 ± 0.011 | -0.303 ± 0.012 |
| CUGAUA | 0.486 ± 0.026 | 1.877 ± 0.003 | 1.7 ± 0.055 | 0.601 ± 0.13 |
| GUGGGU | 0.152 ± 0.061 | 1.94 ± 0.021 | 1.79 ± 0.018 | 0.626 ± 0.031 |
| GUGGGA | -0.0656 ± 0.016 | 1.9229 ± 0.0017 | 1.68 ± 0.053 | 0.178 ± 0.067 |
| GUGGGG | 0.0309 ± 0.01 | 1.841 ± 0.016 | 1.45 ± 0.029 | 0.399 ± 0.07 |
| CUUGCA | 0.834 ± 0.021 | 2.01 ± 0.023 | 1.87 ± 0.041 | 0.882 ± 0.079 |
| CUUGCU | 0.359 ± 0.037 | 2 ± 0.018 | 1.94 ± 0.097 | 0.458 ± 0.056 |
| GUGAUG | 0.204 ± 0.049 | 1.81 ± 0.038 | 1.34 ± 0.019 | 0.686 ± 0.037 |
| AUGCCA | 0.0727 ± 0.02 | 1.91 ± 0.07 | 1.821 ± 0.018 | 0.158 ± 0.03 |
| AUGCAG | 0.251 ± 0.022 | 1.756 ± 0.01 | 1.29 ± 0.019 | 0.682 ± 0.039 |
| AUGCAA | 0.192 ± 0.045 | 1.87 ± 0.022 | 1.72 ± 0.038 | 0.221 ± 0.068 |
| CUUACC | 0.555 ± 0.022 | 1.91 ± 0.046 | 1.907 ± 0.0033 | 0.393 ± 0.022 |
| UUUAAU | 0.485 ± 0.013 | 1.918 ± 0.01 | 1.856 ± 0.0057 | 0.421 ± 0.053 |
| UUUAAC | 0.697 ± 0.045 | 2 ± 0.04 | 1.86 ± 0.021 | 0.716 ± 0.07 |
| GUGGCG | 0.283 ± 0.0056 | 1.94 ± 0.02 | 1.608 ± 0.011 | 0.342 ± 0.023 |
| AUGUGG | -0.193 ± 0.082 | 1.756 ± 0.0083 | 1.27 ± 0.11 | -0.0634 ± 0.1 |
| AUGUGU | -0.337 ± 0.023 | 1.86 ± 0.02 | 1.53 ± 0.059 | 0.155 ± 0.022 |

| Variant | FACS-Seq fitted mean (log10) (hypoxanthine [1]) | normalized RNA/DNA level with ligand (log10) (hypoxanthine [2]) | normalized RNA/DNA level without ligand (log10) (hypoxanthine [3]) | FACS-Seq fitted mean (log10) (hypoxanthine [4]) |
| --- | --- | --- | --- | --- |
| AUGUGA | 0.242 ± 0.018 | 1.849 ± 0.0086 | 1.56 ± 0.1 | 0.68 ± 0.028 |
| AUUCCG | 0.126 ± 0.023 | 1.93 ± 0.021 | 1.589 ± 0.013 | 0.296 ± 0.031 |
| AUUCCU | 0.507 ± 0.036 | 1.922 ± 0.0034 | 1.89 ± 0.064 | 0.567 ± 0.011 |
| GUUAUG | 0.223 ± 0.011 | 1.87 ± 0.039 | 1.46 ± 0.015 | 0.509 ± 0.01 |
| GUGCAU | -0.413 ± 0.2 | 1.91 ± 0.038 | 1.74 ± 0.018 | -0.852 ± 0.077 |
| GUGCAC | 0.5159 ± 0.0044 | 1.87 ± 0.046 | 1.672 ± 0.0021 | 0.536 ± 0.016 |
| GUGCAA | 0.274 ± 0.033 | 1.904 ± 0.0021 | 1.69 ± 0.037 | 0.57 ± 0.059 |
| GUGCAG | 0.0446 ± 0.026 | 1.739 ± 0.0069 | 1.3 ± 0.099 | 0.427 ± 0.039 |
| GUGGAU | 0.3032 ± 0.0022 | 1.917 ± 0.019 | 1.74 ± 0.05 | 0.467 ± 0.024 |
| GUGGAA | 0.0876 ± 0.0021 | 1.88 ± 0.031 | 1.61 ± 0.0033 | -0.0768 ± 0.16 |
| GUUACC | -0.307 ± 0.2 | 1.91 ± 0.057 | 1.882 ± 0.018 | -0.559 ± 0.021 |
| GUUACU | 0.523 ± 0.11 | 1.946 ± 0.0064 | 1.89 ± 0.06 | 0.466 ± 0.036 |
| GUUACG | 0.564 ± 0.075 | 1.88 ± 0.03 | 1.59 ± 0.027 | 0.566 ± 0.043 |
| GUGAAG | 0.168 ± 0.0046 | 1.73 ± 0.0073 | 1.15 ± 0.072 | 0.591 ± 0.023 |
| AUUGGA | 0.196 ± 0.12 | 1.944 ± 0.0073 | 1.647 ± 0.013 | 0.374 ± 0.042 |
| UUGAGA | 0.452 ± 0.082 | 1.96 ± 0.015 | 1.53 ± 0.067 | 0.649 ± 0.057 |
| UUGAGG | 0.402 ± 0.054 | 1.98 ± 0.027 | 1.7199 ± 0.00097 | 0.578 ± 0.02 |
| UUGAGC | 0.0741 ± 0.098 | 1.977 ± 0.003 | 1.89 ± 0.025 | 0.129 ± 0.018 |
| CUGCGC | 0.135 ± 0.0047 | 2 ± 0.033 | 1.92 ± 0.08 | 0.18 ± 0.029 |
| CUGCGA | -0.182 ± 0.027 | 1.98 ± 0.052 | 1.822 ± 0.01 | -0.114 ± 0.022 |
| GUUCAA | 0.0385 ± 0.025 | 1.89 ± 0.075 | 1.79 ± 0.042 | 0.294 ± 0.0042 |
| AUUAAG | 0.351 ± 0.019 | 1.86 ± 0.028 | 1.48 ± 0.056 | 0.65 ± 0.069 |
| AUUAAU | 0.51 ± 0.075 | 1.89 ± 0.023 | 1.774 ± 0.0011 | 0.566 ± 0.024 |
| AUUAAA | 0.84 ± 0.0057 | 1.89 ± 0.045 | 1.78 ± 0.021 | 0.732 ± 0.092 |
